Earlier results, collected in patent publication US20250009916A1, “COMBINATION THERAPY FOR TREATING LUNG CANCER” (Novartis AG, priority 2021, published 2025).
Like-named read-outs stand apart in the source and are kept apart here.

Columns and labels:
[1] = in vivo; cited from earlier work
[2] = 100 mCi dose; patients pretreated, with risk factors or abnormal renal and bone marrow function; cited from earlier work
GEP-NET = details: cited from earlier work
ES-SCLC [3] = details: ES-SCLC patients, first-line, IMPower133; cited from earlier work
ES-SCLC [4] = details: ES-SCLC patients, durvalumab arm, CASPIAN; cited from earlier work
SCLC = details: cited from earlier work
[5] = cited from earlier work
[6] = cited from earlier work; remark: listed apart in the source
advanced solid tumors = details: cited from earlier work
[7] = 4 doses of 7.4 GBq/200 mCi every 8 weeks, GEP-NET patients
[8] = 17 SCLC patients, plus cisplatin/carboplatin and etoposide Q3W
[9] = 200-mg fixed dose cohort, evaluable n=13

Question: Which elimination route [1] does the source give for “Lutetium (^177Lu) oxodotreotide [[^177Lu] Lu-DOTA-TATE]” here?
Answer: mainly via the renal route

Question: And the “interaction with drug transporters” value [1]?
Answer: does not interact with drug transporters

Question: And the metabolization [1]?
Answer: very low (if any)

Question: And the tolerability [2]?
Answer: favorable tolerability

Question: What about the “progression free survival and quality of life with approved regimen” value (GEP-NET; [7]) of the same substance?
Answer: significant improvement of progression free survival (PFS) and quality of life

Question: And the “safety of approved regimen” value (GEP-NET; [7])?
Answer: safe

Question: What about the median overall survival (GEP-NET; GEP-NET patients, phase 3 NETTER-1) of the same substance?
Answer: 48 months

Question: What about the “safety of additional doses exceeding 800 mCi cumulative dose” value (GEP-NET; literature) of the same substance?
Answer: without additional safety signals

Question: For “atezolizumab: immune checkpoint inhibitor antibody (Roche)”, which PFS (ES-SCLC [3]) is on record?
Answer: 5.2 months

Question: For durvalumab: PD-L1 inhibitor, which PFS (ES-SCLC [4]) is on record?
Answer: 5.1 months

Question: With “tislelizumab: anti-PD-1 monoclonal antibody (Beigene), heavy chain SEQ ID NO: 1, light chain SEQ ID NO: 5” as the substance, how does the ORR (SCLC; [8]) read?
Answer: 77%

Question: And the “median OS” value (SCLC; [8])?
Answer: 15.6 months

Question: What about the “median PFS” value (SCLC; [8]) of the same substance?
Answer: 6.9 months

Question: What about the antitumor activity (SCLC; tislelizumab 200 mg with platinum-based chemotherapy, including SCLC group) of the same substance?
Answer: Encouraging antitumor activity

Question: What about the tolerability (SCLC; tislelizumab 200 mg with platinum-based chemotherapy) of the same substance?
Answer: generally well tolerated

Question: And the “rates of treatment-related adverse events and serious adverse events across regimens” value ([5]; 2 mg/kg and 5 mg/kg, once every 2 weeks and once every 3 weeks)?
Answer: comparable

Question: What about the “treatment-related adverse events versus body-weight-based cohorts” value ([5]; 200-mg fixed dose cohort, Phase Ia Part 3) of the same substance?
Answer: no unexpected treatment-related adverse events

Question: What about the “patients with BOR of partial response (PR)” value [5, 9] of the same substance?
Answer: 23%

Question: And the “patients with BOR of progressive disease (PD)” value [5, 9]?
Answer: 46%

Question: And the “patients with BOR of stable disease” value [5, 9]?
Answer: 31%

Question: And the serum exposure ([6]; 200-mg dose)?
Answer: fell between serum exposure observed after 2 mg/kg and 5 mg/kg doses

Question: And the CL ([6]; Phase Ia)?
Answer: independent of body weight, ethnicity, and gender

Question: What about the “safety signals in combination with standard-of-care chemotherapies” value (advanced solid tumors; first-line lung cancer) of the same substance?
Answer: did not lead to new safety signals

Question: And the safety profile (advanced solid tumors; monotherapy or combined with platinum-based chemotherapy)?
Answer: manageable safety profile
